# According to patent US20230002496A1 (STAIDSON BEIJING BIOPHARMACEUTICALS, published 2023):
# T1: human GM-CSFRα, full length on cells (human, UniProt P15509 23-400)
# T1 sequence: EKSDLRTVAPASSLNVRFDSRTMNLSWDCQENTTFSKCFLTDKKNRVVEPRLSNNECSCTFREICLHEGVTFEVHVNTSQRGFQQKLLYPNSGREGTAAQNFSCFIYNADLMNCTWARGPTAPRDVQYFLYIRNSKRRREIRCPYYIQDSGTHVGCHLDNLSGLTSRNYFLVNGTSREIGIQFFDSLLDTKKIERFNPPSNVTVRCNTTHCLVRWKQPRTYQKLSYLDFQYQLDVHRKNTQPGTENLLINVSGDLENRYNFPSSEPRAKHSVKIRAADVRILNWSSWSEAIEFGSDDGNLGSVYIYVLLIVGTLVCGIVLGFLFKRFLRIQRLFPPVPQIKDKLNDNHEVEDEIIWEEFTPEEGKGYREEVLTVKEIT
# Molecular target: T1, human GM-CSFRα, full length on cells
# Assay: cell-based or functional assay
row,"IC50, TF-1 cell proliferation [µg/mL]",Binder
1,0.089,"E35-scFv LS52R (scFv, V domains shown) VH: QMQLVQSGAEVKKPGASVKVSCKVSGYTLTELSIHWVRQAPGKGLEWMGGFDPEDGETIYAQKFQGRVTMTGDTSTDTAYLELSSLRSEDTALYYCATGRYTSLATTYGFDYWGQGTLVTVSS VL: EIVMTQSPATLSLSPGERATLSCRASQSVSSYLAWYQQKPGQAPRLLIYGARSRATGIPDRFSGSGSGTDFTLTISRLEPEDFAVYYCQQYDNWPYTFGQGTKLEIK"
2,0.136,"E35-scFv LS52T (scFv, V domains shown) VH: QMQLVQSGAEVKKPGASVKVSCKVSGYTLTELSIHWVRQAPGKGLEWMGGFDPEDGETIYAQKFQGRVTMTGDTSTDTAYLELSSLRSEDTALYYCATGRYTSLATTYGFDYWGQGTLVTVSS VL: EIVMTQSPATLSLSPGERATLSCRASQSVSSYLAWYQQKPGQAPRLLIYGATSRATGIPDRFSGSGSGTDFTLTISRLEPEDFAVYYCQQYDNWPYTFGQGTKLEIK"
3,0.181,"E35-scFv LS52Y (scFv, V domains shown) VH: QMQLVQSGAEVKKPGASVKVSCKVSGYTLTELSIHWVRQAPGKGLEWMGGFDPEDGETIYAQKFQGRVTMTGDTSTDTAYLELSSLRSEDTALYYCATGRYTSLATTYGFDYWGQGTLVTVSS VL: EIVMTQSPATLSLSPGERATLSCRASQSVSSYLAWYQQKPGQAPRLLIYGAYSRATGIPDRFSGSGSGTDFTLTISRLEPEDFAVYYCQQYDNWPYTFGQGTKLEIK"
4,0.138,"E35-scFv LS52Q (scFv, V domains shown) VH: QMQLVQSGAEVKKPGASVKVSCKVSGYTLTELSIHWVRQAPGKGLEWMGGFDPEDGETIYAQKFQGRVTMTGDTSTDTAYLELSSLRSEDTALYYCATGRYTSLATTYGFDYWGQGTLVTVSS VL: EIVMTQSPATLSLSPGERATLSCRASQSVSSYLAWYQQKPGQAPRLLIYGAQSRATGIPDRFSGSGSGTDFTLTISRLEPEDFAVYYCQQYDNWPYTFGQGTKLEIK"

# Second part, the binder before the results:
row,Binder,"IC50, TF-1 cell proliferation [µg/mL]"
1,"E35-scFv LS52H (scFv, V domains shown) VH: QMQLVQSGAEVKKPGASVKVSCKVSGYTLTELSIHWVRQAPGKGLEWMGGFDPEDGETIYAQKFQGRVTMTGDTSTDTAYLELSSLRSEDTALYYCATGRYTSLATTYGFDYWGQGTLVTVSS VL: EIVMTQSPATLSLSPGERATLSCRASQSVSSYLAWYQQKPGQAPRLLIYGAHSRATGIPDRFSGSGSGTDFTLTISRLEPEDFAVYYCQQYDNWPYTFGQGTKLEIK",0.192
2,"E35-scFv LS52L (scFv, V domains shown) VH: QMQLVQSGAEVKKPGASVKVSCKVSGYTLTELSIHWVRQAPGKGLEWMGGFDPEDGETIYAQKFQGRVTMTGDTSTDTAYLELSSLRSEDTALYYCATGRYTSLATTYGFDYWGQGTLVTVSS VL: EIVMTQSPATLSLSPGERATLSCRASQSVSSYLAWYQQKPGQAPRLLIYGALSRATGIPDRFSGSGSGTDFTLTISRLEPEDFAVYYCQQYDNWPYTFGQGTKLEIK",0.115
3,"E35-scFv LS52N (scFv, V domains shown) VH: QMQLVQSGAEVKKPGASVKVSCKVSGYTLTELSIHWVRQAPGKGLEWMGGFDPEDGETIYAQKFQGRVTMTGDTSTDTAYLELSSLRSEDTALYYCATGRYTSLATTYGFDYWGQGTLVTVSS VL: EIVMTQSPATLSLSPGERATLSCRASQSVSSYLAWYQQKPGQAPRLLIYGANSRATGIPDRFSGSGSGTDFTLTISRLEPEDFAVYYCQQYDNWPYTFGQGTKLEIK",0.253
4,"E35-scFv LS52F (scFv, V domains shown) VH: QMQLVQSGAEVKKPGASVKVSCKVSGYTLTELSIHWVRQAPGKGLEWMGGFDPEDGETIYAQKFQGRVTMTGDTSTDTAYLELSSLRSEDTALYYCATGRYTSLATTYGFDYWGQGTLVTVSS VL: EIVMTQSPATLSLSPGERATLSCRASQSVSSYLAWYQQKPGQAPRLLIYGAFSRATGIPDRFSGSGSGTDFTLTISRLEPEDFAVYYCQQYDNWPYTFGQGTKLEIK",0.167
